Test results reported in publication PMC12343034, “ArnR binds a [4Fe–4S] cluster and indirectly senses anaerobicity in Corynebacteria”.

B1: hmp promoter 30 bp (JC05_F/JC06_R) (dsDNA)
DNA 1: GGATTTAATCTAATTAAATAAATCCCAGGA
DNA 2: TCCTGGGATTTATTTAATTAGATTAAATCC
B2: hmp promoter 80 bp (JC01_F/JC02_R) (dsDNA)
DNA 1: CGCCTTTCCATGCTTCATGGGTTAATTTCTACGGATTTAATCTAATTAAATAAATCCCAGGATCCAAGCAATTTGGCCTT
DNA 2: AAGGCCAAATTGCTTGGATCCTGGGATTTATTTAATTAGATTAAATCCGTAGAAATTAACCCATGAAGCATGGAAAGGCG

How the values were obtained:
ArnR ([4Fe-4S] form) [1] = target: T1, ArnR ([4Fe-4S] form) (Corynebacterium glutamicum ATCC 13032, UniProt Q8NR72 1-230); test: native MS; [4Fe-4S], two clusters per dimer; complex at 71438 Da; [4Fe-4S]:[DNA] ~1; SPR: HBS+P (10 mM HEPES, 150 mM NaCl, surfactant P20) with 1 mM DTT, pH 7.4, 25 C, anaerobic; EMSA: 10 mM Tris, 54 mM KCl, 0.3% glycerol, pH 7.5, on ice; native MS: DNA in 100 mM ammonium acetate, pH 8; conditions: protein: recombinant; tags: C-terminal His; chain copies: 2; blunt
T1 sequence: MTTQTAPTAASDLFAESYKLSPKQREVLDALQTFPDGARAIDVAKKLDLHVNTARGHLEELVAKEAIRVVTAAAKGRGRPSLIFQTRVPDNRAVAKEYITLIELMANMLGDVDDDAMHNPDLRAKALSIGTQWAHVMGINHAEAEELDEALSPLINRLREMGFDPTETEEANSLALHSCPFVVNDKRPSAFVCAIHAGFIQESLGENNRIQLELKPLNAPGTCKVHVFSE

ArnR ([4Fe-4S] form) [2] = target: T1, ArnR ([4Fe-4S] form); test: EMSA; [4Fe-4S]; maximal binding at ~315 nM [4Fe-4S] (~32-fold over DNA); SPR: HBS+P (10 mM HEPES, 150 mM NaCl, surfactant P20) with 1 mM DTT, pH 7.4, 25 C, anaerobic; EMSA: 10 mM Tris, 54 mM KCl, 0.3% glycerol, pH 7.5, on ice; native MS: DNA in 100 mM ammonium acetate, pH 8; conditions: protein: recombinant; tags: C-terminal His; chain copies: 2; label: 5' 6-FAM on strand 1; blunt

Binder	binding result (ArnR ([4Fe-4S] form) [1])	binding result (ArnR ([4Fe-4S] form) [2])
B1	binds	
B2		binds
